Results published in patent US20240409645A1 (DUALYX, published 2024).

What was measured:
[1] = biological target: T1, human IL-2Rγ (common cytokine receptor γ-chain) (human, UniProt P31785 23-262, limits assumed); assay: SPR off-rate ranking, periplasmic extract on immobilised protein
T1 construct: Recombinant protein coated on the plate or immobilised on a CM5 chip; also called hu IL-2R; CD132
T1 sequence: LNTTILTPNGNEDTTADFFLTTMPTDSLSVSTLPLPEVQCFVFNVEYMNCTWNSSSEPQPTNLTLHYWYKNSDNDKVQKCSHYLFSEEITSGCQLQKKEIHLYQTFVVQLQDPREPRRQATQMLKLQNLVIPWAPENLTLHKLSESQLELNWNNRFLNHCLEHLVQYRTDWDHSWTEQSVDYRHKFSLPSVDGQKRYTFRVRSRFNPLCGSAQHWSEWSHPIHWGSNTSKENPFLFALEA
Protocol: SPR was performed to determine dissociation rates using Biacore 3000 instrument (GE Healthcare). Briefly, human and mouse IL-2R proteins were immobilized on carboxylmethyl dextran sensor chip (CM5) at approximately 2500 RUs using amine coupling in acetate buffer (GE Healthcare). The VHH-containing P.E. were loaded with a flow rate of 30 uL/min and the off-rates were measured over a 120s period.

[2] = biological target: T1, human IL-2Rγ (common cytokine receptor …); assay: PE binding ELISA, periplasmic extract on coated protein
Protocol: In a binding ELISA, human or mouse IL-2Rα, IL-2Rβ and IL-2Rγ proteins were coated directly on maxisorp microtiter plates overnight at 4° C. Free binding sites were blocked using 4% Marvel in PBS for 1 hour. Next, 1:5 dilution of P.E. in 1% Marvel/PBS were added to wells and incubated for 1 hour. […] Binding specificity was determined based on O.D. at 450 nm values compared to negative controls.

Binder	koff [1] [s⁻¹]	OD (PE binding ELISA) [2] [OD450 nm]
FJ1427_P035MP04G07 (VHH, VHH in periplasmic extract; also called clone nr) VHH: QVQLVESGGGWVQVGESLRLSCAPSGRTFVSGIMGWFRQAPGKEREFVARIILNNNSTRYTDSVKGRFTISRDSAKNTMYLQMNTLRPEDTAVYYCAARDRYGSGNSLSPSAYDYWGQGTQVTVSS	0.0091	0.863
FJ1427_P035MP04A07 (VHH, VHH in periplasmic extract; also called clone nr) VHH: QLQLVESGGGWVQVGESLRLSCAPSGRTFVSGIMGWFRQAPGKEREFVARIILNNNSTRYIDSVKGRFTISRDSAKNTMYLQMDSLRPEDTAVYYCAARDRYGSGNSLSPSAYDYWGQGTQVTVSS	0.0196	1.9
FJ1427_P035MP04A10 (VHH, VHH in periplasmic extract; also called clone nr) VHH: EVQLVESGGGWVQVGESLRLSCAPSGRTFVSGIMGWFRQAPGKEREFVARIILNNNSTRYTDSVKGRFTISRDSAKNTMYLQMNTLRPEDTAVYYCAARDRYGSGNSLSPSAYDYWGQGTQVTVSS	0.0204	1.85
FJ1427_P035MP04E04 (VHH, VHH in periplasmic extract; also called clone nr) VHH: EVQLVESGGGWVQVGESLRLSCVPSGRTFVSGIMGWFRQAPGKEREFVARIILNSNSTRYTDSVKGRFTISRDSAKNTMYLQMNSLRPEDTAVYYCAARDRYGSGNSLSPSAYDYWGQGTQVTVSS	0.00796	1.73
FJ1427_P035MP04B02 (VHH, VHH in periplasmic extract; also called clone nr) VHH: QVQLVESGGGWVQVGESLRLSCAPSGRTFVSGIMGWFRQTPGKEREFVARIILNNNSTRYTDSVKGRFTISRDSAKNTMYLQMNTLRPEDTAVYYCAARDRYGSGNSLSPSAYDYWGQGTQVTVSS	0.0285	1.97
FJ1427_P035MP04D09 (VHH, VHH in periplasmic extract; also called clone nr) VHH: QVQLVESGGGWVQVGESLRLSCAPSGRTFVRGIMGWFRQAPGKEREFVARIILNSNSTRYIDSVKGRFTISRDSAKNTMYLQMNSLRPEDTAVYYCAARDRYGSGNSLSPSAYDYWGQGTQVTVSS	0.0207	1.93
FJ1427_P035MP04D12 (VHH, VHH in periplasmic extract; also called clone nr; 380) VHH: QVQLVESGGGWVQVGKSLRLSCAPSGRTFVSGIMGWFRQAPGKEREFVARIILNNNSTRYIDSVKGRFTISRDSAKNTMYLQMDSLRPEDTAVYYCAARDRYGSGNSLSPSAYDYWGQGTQVTVSS	0.0072	1.05
FJ1427_P035MP04C12 (VHH, VHH in periplasmic extract; also called clone nr) VHH: EVQLVESGGGWVQVGESLRLSCAPSGRTFVSGIMGWFRQAPGKEREFVARIILNNNSTRYIDSVKGRFTISRDSAKNTMYLQMDSLRPEDTAVYYCAARDRYGSGNSLSPSAYDYWGQGTQVTVSS	0.00732	1.68
FJ1427_P035MP04A03 (VHH, VHH in periplasmic extract; also called clone nr) VHH: EVQLVESGGGWVQVGESLRLSCAPSGRTFVSGIMGWFRQTPGKEREFVARIILNNNSTRYTDSVKGRFTISRDSAKNTMYLQMNTLRPEDTAVYYCAARDRYGSGNSLSPSAYDYWGQGTQVTVSS	0.00712	1.87
FJ1427_P035MP04E12 (VHH, VHH in periplasmic extract; also called clone nr) VHH: QLQLVESGGGWVQVGESLRLSCAPSGRTFASGIMGWFRQAPGKEREFVARIILNNNSTRYTDSVKGRFTISRDSAKNTMYLQMNTLRPEDTAVYYCAARDRYGSGNSLSPSAYDYWGQGTQVTVSS	0.00688	1.33
FJ1427_P035MP04C05 (VHH, VHH in periplasmic extract; also called clone nr) VHH: QVQLVESGGGWVQVGESLRLSCAPSGRTFVSGIMGWFRQAPGKEREFVARIILNNNSTRYTDSVKGRFTISRDSAKDTMYLQMNTLRPEDTAVYYCAARDRYGSGNSLSPSAYDYWGQGTQVTVSS	0.00775	1.81
FJ1427_P035MP04F09 (VHH, VHH in periplasmic extract; also called clone nr) VHH: QVQLVESGGGWVQVGESLRLSCAPSGRTFVRGIMGWFRQAPGKEREFVARIILNNNSTRYTDSVKGRFTISRDSAKNTMWLQMDSLRPEDTAVYYCAARDRYGSGNSLSPSAYDYWGQGTQVTVSS	0.00795	1.77
FJ1427_P035MP04E02 (VHH, VHH in periplasmic extract; also called clone nr; 301) VHH: QVQLVESGGGWVQVGESLRLSCAPSGRTFVSGIMGWFRQTPGKEREFVARIILNNNSTRYTDSVKGRFTISRDSAKNTMYLQMNTLRPEDTAVYYCAARDRYGSGNSLSPSAYDYWGQGTQVTVSS	0.00652	1.98
FJ1427_P035MP04B11 (VHH, VHH in periplasmic extract; also called clone nr; 370) VHH: EVQLVESGGGWVQVGESLRLSCAPSGRTFVSGIMGWFRQAPGKEREFVARIILNNNSTRYIDSVKGRFTISRDSAKNTMYLQMDSLRPEDTAVYYCAARDRYGSGNSLSPSAYDYWGQGTQVTVSS	0.0103	0.75
FJ1427_P035MP04B07 (VHH, VHH in periplasmic extract; also called clone nr) VHH: EVQLVESGGGWVQVGESLRLSCAPSGRTFVSGIMGWFRQTPGKEREFVARIILNNNSTRYTDSVKGRFTISRDSAKNTLYLQMNTLRPEDTAVYYCAARDRYGSGNSLSPSAYDYWGQGTQVTVSS	0.0187	1.94
FJ1427_P035MP04C10 (VHH, VHH in periplasmic extract; also called clone nr) VHH: QVQLQESGGGWVQVGESLRLSCVPSGRTFVSGIMGWFRQAPGKEREFVARIILNNNSTRYTDSVKGRFTISRDSAKNTMYLQMNTLRPEDTAVYYCAARDRYGSGNSLSPSAYDYWGQGTQVTVSS	0.0205	1.33
FJ1427_P035MP04B06 (VHH, VHH in periplasmic extract; also called clone nr; 330) VHH: QLQLVESGGGWVQVGESLRLSCVPSGRTFVSGIMGWFRQAPGKEREFVARIILNNNSTRYTDSVKGRFTISRDSAKNTMYLQMNTLRPEDTAVYYCAARDRYGSGNSLSPSAYDYWGQGTQVTVSS	0.0208	1.45
FJ1427_P035MP04B10 (VHH, VHH in periplasmic extract; also called clone nr) VHH: EVQLVESGGGWVQVGESLRLSCAPSGRTFVSGIMGWFRQAPGKEREFVARIILNNNSTRYIDSVKGRFTISRDSAKNTMYLQMDSLRPEDTAVYYCAARDRYGSGNSLSPSAYDYWGQGTQVTVSL	0.00749	1.47
30-MP04C03 (VHH, VHH in periplasmic extract; also called FJ1427_P035MP04C03; clone nr) VHH: EVQLVESGGGWVQDGGSLRLSCALSGRTFVRGIMGWFRQAPGKEREFVARIIWHINSTRYADSVKGRFTISRDSAKNTMYLQMDSLRPEDTAVYYCAARDRYGSGNSLSPSAYDYWGQGTQVTVSS	0.00844	1.49
27-MP04G01 (VHH, VHH in periplasmic extract; also called FJ1427_P035MP04G01; clone nr) VHH: QVQLVESGGGLVQAGGSLTLSCAAPGRTFGTDVVGWFRQAPGKEREFVASISRSGDGIYYDDSVKGRFTISRNNAWNTVNLQMNSLKVEDTAVYYCAAGDGWSTYDYWGQGTQVTVSS	0.00131	0.362
FJ1427_P035MP04C01 (VHH, VHH in periplasmic extract; also called clone nr) VHH: QVQLVESGGGLVQAGGSLTLSCAASGRTFSTDVVGWFRQAPGKEREFVASISRSGDGIYYDDSVKGRFTISRNNAWNTVNLQMNNLKVEDTAVYYCAAGDGWSTYDYWGQGTQVTVSS	0.00124	0.264
36-MP07F02 (VHH, VHH in periplasmic extract; also called FJ1427_P035MP07F02; clone nr; 590) VHH: QVQLVESGGGLVQAGGSLRLSCAASGRTLSRYAMGWFRQAPGSEREFVAASSWGGDTFYADSVEGRFTFSRDNAKNAVYLQMNSLQPEDTAAYYCAAAPTSFPTTAYSSSNSYAYWGQGTQVTVSS	0.00331	0.896
FJ1427_P035MP04B01 (VHH, VHH in periplasmic extract; also called clone nr; 290) VHH: EVQLVESGGGLVQAGASLRLSCAASGRTLSRYAMGWFRQAPGKEREFVAASSWGGDTYYADSVEGRFTFSRDNAKNAVYLQMNSLQPEDTAVYYCAGAPTSFATTAYSSSNSYAYWGQGTQVTVSS	0.00327	0.873
35-MP07G01 (VHH, VHH in periplasmic extract; also called FJ1427_P035MP07G01; clone nr) VHH: QVQLQESGGGLVQGGGSLRLSCAASGGIFSSYAMGWFRQAPGKEREFVAAISRSGRSTNYADSVKGRFTISRDNAKSTVYLQMNSLKPEETAVYYCAAGRYYNSAYDPSPGDFGSWGHGTQVTVSS	–	0.134
29-MP04H02 (VHH, VHH in periplasmic extract; also called FJ1427_P035MP04H02; clone nr) VHH: QVQLVESGGGLVQAGGSLRLACVASGLTFDNYYMGWFRQAPGKEREFVAGIIWNGDHTAYADSIKGRFTISRDNAKNTAYLRMNSLKPEDTAVYYCAATFWIERATTPDIGQYAYWGQGTQVTVSS	0.00625	0.157
